# Experimental data from the DeepSol protein solubility set.
# Assay: soluble on expression in E. coli; label from the status in PepcDB or PDB records
row,Sequence,soluble on expression in E. coli
1,MGKLFGTDGVRGIVNKELTPELVLKLSKAIGTFFGKNSKILVGRDVRAGGDMLVKIVEGGLLSVGVEVYDGGMAPTPALQYAVKTLGYDGGVVITASHNPAPYNGIKVVDKDGIEIRREKENEIEDLFFTERFNTIEWSSLTTEVKREDRVISTYVNGILSHVDIEKIKKKNYKVLIDPANSVGALSTPLVARALGCKIYTINGNLDPLFSARQPEPTFDSLKETAEVVKTLKVDLGVAHDGDADRAIFIDSEGRVQWGDRSGTLLSYWASVKNPKAIKKIVTAVSSSSLVEEYLSKYNIQVDWTKVGSVDIAHKVADENALAGFEENGGFMYPPHQYVRDGAMSFALMLELLANENVSSAELFDRLPKYYLVKTKVDLKPGLMVEEIYKKILEVYSTSSVKAITIDGVKIIGKDFWFLVRKSGTEPIIRIMAEAKDENVANNLVNELKKIVEGK,soluble
2,NDKYMLLVFGRNGCSYCERFKKDLKNVKELRDYIKEHFSAYYVNISYSKEHDFKVGDKNNEKEIKMSTEELAQIYAVQSTPTIVLSDKTGKTIYELPGYMPSTQFLAVLEFIGDGKYQDTKDDEDLTKKLKAYIKYKTNLSKSKSN,not soluble
3,MQALQERLEKLENATGSEVWEVLKASEPELRQDLSSLQKLKADKESAAREALTALKTKKNELKNLKNDVESLKNEYKTYIEMVENGLKQSGLDIKQVVQVFERVLEESLSEKRLAILSTIDSAHISDIKSIKTPVKSILKLLEDPNKLQLRILVQSELREFSNSAIEIFRRSLWDLFQNQGIPMKNLGEMPNSEDFLQKIGELFQFSTDLDKLIAGNWGKSIENLISAAFGQLSNYCIDIIENERGEADFEWILKSSHDWAKNLSQILQKTVEKSNLESELKQEFEEKFNEKFVDFIKLITRKFLEKNIKEPTIFSNVAQMLKKFKISSEFNLSGDRDLQEPFYEPKFMSRWILVYYIVAKISEYPVLTQLFAPLKITVVSKKIFFF,not soluble
4,MRSYFLIFILILLLEIREVWSWKAPYLRDRPRGLGLLQLPTGISDERSGPFLPGLYIAGNKVNQKPQTVPDVHLPGQPADFTGRSAFNPFTHMVSAVYAEDLSDGWGAGMAVNGVNGHGLNVRKNFDSYADVPLNLNDGMYQPFIAAATVGGEYDLSKMREVSGSLDLPIPGVNELFDLNARILVKTFLLHNSAIEFPLTLSDPNERAPYNFRYAVWAPDRHMAYGHVVPNVNPYVIGKDKIMERLMQNRLNPTMVG,not soluble
5,MNSQTTKDIPCFRSYLPDALRLRFEDKLTIRAIAQRLGLSHSTIHTLFQRFLASGIAWPLPDSVSFAQLDAILYANRKKELTEPQIREGSWRKERRTSYSREFKVRLAKQALQPGAVVARIAREHDINNNLLFKWKSQYEDGLLSDDDIQECMPVPVALTDTPEPTRPVTNPFWRNKHDERPEGAPGNVPRCELHLKSGVVKLFDPLTPELLRALIREMKGGIRLEHHHHHH,not soluble
6,MSLNRLDVMILKILAEADRPMGSGRIAELIEERFGEKYSTRSIRYRLQKMEERGLIRRVRRNDRVVGAEITEWGLTMLKTETSSERVGMYISLIEEMAYRCSFDPEVMKGKVVCNISVVKREHLDDFLDAVVETYRAGISPSPLVAVKEDLSDHDVEVGEDEVAVLTVCSVTIDGVLINRGIPVTPVCGGLLYLEDGEPLGMQEYIKYEGSTVDPLHVFVAKGMTQVERVLETGTGLVPANVRYVPWAALEDVEHVERELEKADIRGIVDVPKVEGEILGIPLPPRSLGIVAYGGLVPVALLEERGISTRTYPTRTLVEYSSLEDARRYEGHHHHHH,soluble
7,MDAYLDYISGIWSKIDKKFHDQDISAKVAILQLVARPYYYWIQENPAQEKPVVEESQPRKQDNLREITSKYGDALQVDSDTVKIVKRLNTDEFNKLKEDLRQLGFLYDAQLRGFKKKQ,not soluble
8,MKMLTVENLSKSYGEKPLFDGLSFSIAEGQRAGIIGVNGTGKSTLLKIIAGAEIPDTGDMTHSRGYTISYLSQQPEFDEQLTVLEQVFHGDTPLIRLLRDYEKALLHIEKDPSNEKVQEQLFAVQQRMDAMSVWEANANAKSLLTKLGITDFTATVGNLSGGQKKRIAMAQCFIETPDLLILDEPTNHLDHETVEWLEEYLARYTGAVLLVTHDRYFLDRVTNRIFELDNGKLYSYEGNYSTFLEAKALREEQELAQESKRQNLYRRELAWIRRGAKARSTKQKARIQRFEELKGQEGPAAKQSVDIALSGSRLGKKVLELKDVTKKFGDKTVLNNFNHIVKPGDRIGIIGANGSGKSSLLNMLAGKISPDSGEIEVGQTVKIAYYTQENEEMNLNQRMIEYIKEIAEVIHTTDGKVIGASQMLERFLFPPHSHGTPLGKLSGGERRRLYLLRILMGEPNVLLLDEPTNDLDPQTLTVLEDYLEDFSGVVLTVSHDRYFLDKVVDELFIFTGEGEVREFLGSYTDYLEMEKTRELIEKAEVQKEKKVVEEAPKQQRKRKLSYNEQREWETIEDTIAELEEKLESIGEELANVGSDFTKAQELSEAQQKTEEELEKTMERWSELSDIVEGLK,not soluble
9,MVKAVIFTDFDGTVTLEDSNDYLTDTLGFGKEKRLKVFEGVLDDTKSFRQGFMEMLESIHTPFPECIKILEKKIRLDPGFKDTFEWAQENDVPVIVVSSGMKPIIKVLLTRLVGQESIHKIDIVSNEVEIDAHDQWKIIYKDESPFGHDKSRSIDAYKKKFESTLKAGEQRPVYFYCGDGVSDLSAAKECDLLFAKRGKDLVTYCKKQNVPFHEFDTFKDILASMKQVLAGEKTVAELMEN,soluble
10,GPLGSKVDLFDFELPERLIAQVPLEQRDASRLMVLDKHTGELTDSSFKHIISFFNEGDCLVLNNTRVLPARLFGTKEDTGAKVELLLLKQETGDKWETLAKPAKRVKKGTVVTFGDGRLKAICTEELEHGGRKMEFQYDGIFYEVLESLGEMPLPPYIKEQLDDKERYQTVYSKEIGSAAAPTAGLHFTEEILQQLKDKGVQIEFITLHVGLGTFRPVSADEVEEHNMHAEFYQMSEETAAALNKVRENGGRIISVGTTSTRTLETIAGEHDGQFKASSGWTSIFIYPGYEFKAIDGMITNFHLPKSSLIMLVSALAGRENILRAYNHAVEEEYRFFSFGDAMLII,soluble
11,MLQGFRWSPHGFWVCQARFFNKKIRQRTHYEVLGVESTATLSEIKSAFYAQSKKVHPDNSSEESATASFLELKNAYDVLRRPADRRLYDYQLRGGGGRYPNGGQRYQYPNTAPQYDFSRDWSTYWSQNPDNSRSSREERDKSSREFMKSI,not soluble
12,MEETKRLQKVYQLFAESTTERIPTDRLVDVLRFAGYIISESYIGELLSSIPGETLDFGQLVDVCERIREREITREELQNSFRRLDVDNTSYIDAGRLVQILSSGENRFSDEEIEELLNILNPDGDGKICYDLVIKNIFGY,not soluble
13,MGSDKIHHHHHHMGTIWPDSLPQSKGAKYTLVADVIRKAIDTKELEVGVKLPPVRELAYKLGITPGTVARAYTILTDEGLLNAEVGRGTFVAPPKRPVLDDVWSRQLYLLDERDDDNVSLFSPRLADMGQVALIRECLQKVAQGDPAMFLNYPTRDAYAGVRQAVVDWMSDLSLGPLTADDIVLTHGGQSGLCVVFQTVFKGPKPVVLVEDLSYAGFRRAAELMRADVIGVRMDKWGIDPMSLDLTARQSPAQAICVSPEVQNPTGSRSPLERRKEVVEVARKHDLQIIEDDCYRMGEPQAPSYRALAPERGWHVSSVSKTLTPALRVGFAIAPEGQSAGLRRSAEYGYFGLAQPLAELTRLMLSDPRARDLARAVQRRMAEYVRVTVNTLGGFDLVWDSAVPFVWLRLPSGWRSAAFTRAAERAGVQVRSADEFALRDGRAPNAVRIAMNAHVSLERFETAMVRLRALLDNPPEQISV,not soluble
14,MPAPLKQLSWSVGCREIGRNCAISFIDALVNSLLAFRIAKRHTKLASECTWSQGRIDFMSENLNHTERQDRAITAPEFDALGRAPFISSLVKTLVHTDYDTSTGEVRSRRATGFVVGLTGEWGLGKSSVLNLLEHDLKQMEHVAVATLNPWLFKGRDEVVEAYFNALREALGFSSSEKARKLLVHLARYKASIEFVGATTAVVIDFVVGTGSATAIWKKWVLKVVRFLSKSRGLSANEERKNLEAKLAEAKIAIVMLIDELDRVEDEEVRVVAQLVKAVGDIKGISYLVAYDPSRVAQALGKGSTPEEKQKAGESYLEKIIQFPIPLRPLFMDEARDLLLQAMRNNDVTMPAESQSYQTEILNQLLRVIRTPREIKRLIGAFAVLEEIVRGEICPFDVLAYSWLVTKAPSLRERIADNIGQLVDDPSGEEMLARQRQRALATDKERTLTDILGSSAVSHLDILQLLFTRFNARREGSAEFFNGYRLALRRNLIRLLYLGNPPGDFSRRDIEVLWSLTNVDELEAELRRVKETDRLGPLLDRVGDFSASFPEAGDGIFWLALGRALVRENDWIRREEVERSLVDDACATLWRIARDGSEGSRRLRHIVHVLIEGGDLLIVPWLLRKHLFAHGLTNHGDRGRGDCIFEKDETIALRDKELPRYHDAVADGTALKKLPDTELIFCVLNSNYWDSKLKEDFTLQLDSIEAIVSFAALIMPPGIICDKSTLDLMLETDTVLKKANALLRQSGMPESDWLASAVRRLRTVLAGRDIHSADTLRDDFDQEELEHHHHHH,not soluble
15,MMKILPHVTNETAPLRTVVLGLPDSTGGAPALADTYDAKSYESVLRGTYPSDEDIKIEMDAVLDVLVRHGIEVLRPEPIANYNQIFARDVAFAIDDKLFVSNLIADRARESEAFSPIWDCVGESHLVRLSEDIHAEGGDILLYDDILFIGTYLQKDYPSFKTARTNARAVDFFREFFPHKTIIPIELIKHDTDPMRSVLHLDCAFQPVGRSRAIVYRQGFLHSESFGLITEIFGGRDNLFEITPEEAYMMNTNIFSISPDTVISEQNFVRLNNHLREAWGMTVEEVPYAEISKQGGLLRCSTMPLVRE,not soluble
16,EHAKQASSYIPLDRLSISYCRSSGPGGQNVNKVNSKAEVRFHLASADWIEEPVRQKIALTHKNKINKAGELVLTSESSRYQFRNLAECLQKIRDMIAEA,soluble
17,MERTVKLRVKVDYKTYSALKEVEKEYREVLEEAINYGLSNKTTSFTRIKAGVYKTEREKHKDLPSHYIYTACEDASERLDSFEKLKRRGRSYTEKPSVRRVTIHLDDHLWKFNLDRISISTKRSRILISPTFPKIFWRYYNKGWRIASEARFKLLKGNVVEFYVIFKRDEPKPYEPKGFISVDLNENSVSVLVDGKPMLLETNTKRITLGYEYRRKAITTGKSTKDREVRRKLKRLRERNKKVDIRRKLAKLIVKEAFESRSVIVLEDLPRRTPEHMIKDVKDSQLRLRIYRAAFSSMKNAIIEKAREFGVPVVLVNPSHTSTVCPVHGTKIVYQLDGGDAPRVGVCEKGKEKWHRDVVALYNLARRAGDVSPVPLGSKESHDPPKRWLRAKSLHSIMNDHKMIEMKVLEHHHHHH,not soluble
18,MTSLVAYGSDSEGEDDDFFGKPTTEKEETTKNAEKEKEEESEKIAESDEKPTISSFFFSGDDDKAGSSDSDDSEGESVGPKKKRRSGESVTELDKEFTSSIFDNDYAREERMNARMLSRHVDLSDKPSEKERKKSKFTCKNYLKGKCRFGDKCRFSHPVHNRSSDAVNEVSISSEAKFYTTETPEAQVFHSKKFKSSAGQ,not soluble
19,MHNISAKKFLGYLKNKCLEFGVKVIEGNPAYTSIKCPNCGSRLSQLYKLADERALPSRLMYCFDCGFYADRDTVAVFNLIKRFTGLYPFSPKSNEPIAEGTVFPDEAMGLEHHHHHH,soluble
20,MIKRVFIDTDIILDVALAREPFFTASKIILAMAENNIIIGNISSNCVANIYYILRKSGGDNKARKFILNIVKYITVIVINHRNVLDSLRSKFSDFEDALQHSSAVENQCEYIITRNIEDYKNAKIKVLLPEEFIGMFLEHHHHHH,not soluble
